Paper PMC9482650, “Quantitative fragmentomics allow affinity mapping of interactomes” (Nature Communications, 2022)

Experiments:
Experiment in all cases: holdup assay
Parameters in all cases: key: below the threshold = too weak to quantify, mostly under pKd 3.1 to 4
Inadl_4, Q8NI35 = target: Inadl_4, Q8NI35
PARD3_3, Q8TEW0 = target: PARD3_3, Q8TEW0
SCRIB_2, Q14160 = target: SCRIB_2, Q14160
MAGI1_1, Q96QZ7 = target: MAGI1_1, Q96QZ7
NOS1, P29475 = target: NOS1, P29475
GRID2IP_2, A4D2P6 = target: GRID2IP_2, A4D2P6
Sequence of GRID2IP_2, A4D2P6 (A4D2P6 272-370): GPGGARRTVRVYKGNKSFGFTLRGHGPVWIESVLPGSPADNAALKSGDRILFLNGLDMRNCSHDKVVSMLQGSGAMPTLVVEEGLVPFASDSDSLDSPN

NHERF4_2, Q86UT5 = target: NHERF4_2, Q86UT5
Sequence of NHERF4_2, Q86UT5 (Q86UT5 220-308): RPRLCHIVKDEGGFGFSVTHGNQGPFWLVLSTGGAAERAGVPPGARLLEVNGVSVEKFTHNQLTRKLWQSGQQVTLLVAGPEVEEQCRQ

PDZD2_2, O15018 = target: T1, PDZD2_2, O15018
T1 sequence (O15018 329-429, limits assumed, looked up): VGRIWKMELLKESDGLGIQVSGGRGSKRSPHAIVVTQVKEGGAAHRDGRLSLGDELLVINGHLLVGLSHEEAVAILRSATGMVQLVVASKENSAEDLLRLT

MAST2, Q6P0Q8 = target: MAST2, Q6P0Q8
Sequence of MAST2, Q6P0Q8 (Q6P0Q8 1099-1202): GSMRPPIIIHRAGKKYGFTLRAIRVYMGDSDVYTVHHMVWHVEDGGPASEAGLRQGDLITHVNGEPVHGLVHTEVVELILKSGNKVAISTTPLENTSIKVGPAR

GRIP2_3, Q9C0E4 = target: GRIP2_3, Q9C0E4
Sequence of GRIP2_3, Q9C0E4 (Q9C0E4 238-339): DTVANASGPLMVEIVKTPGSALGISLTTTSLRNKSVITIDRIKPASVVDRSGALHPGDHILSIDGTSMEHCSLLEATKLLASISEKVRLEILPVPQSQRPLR

LDB3, O75112 = target: LDB3, O75112
Sequence of LDB3, O75112 (O75112 1-94): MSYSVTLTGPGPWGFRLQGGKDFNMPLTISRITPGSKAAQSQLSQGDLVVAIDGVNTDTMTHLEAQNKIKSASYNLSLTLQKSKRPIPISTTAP

DLG3_3, Q92796 = target: T2, DLG3_3, Q92796
T2 sequence (Q92796 374-475, limits assumed, looked up): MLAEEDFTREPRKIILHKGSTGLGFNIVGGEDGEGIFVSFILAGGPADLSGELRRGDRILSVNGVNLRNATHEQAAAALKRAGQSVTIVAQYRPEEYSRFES

DLG4_1, P78352 = target: DLG4_1, P78352
Sequence of DLG4_1, P78352 (P78352 62-152): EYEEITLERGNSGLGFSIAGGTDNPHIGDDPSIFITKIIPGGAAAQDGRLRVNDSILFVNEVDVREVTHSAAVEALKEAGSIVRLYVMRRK

GRIP2_5, Q9C0E4 = target: GRIP2_5, Q9C0E4
Sequence of GRIP2_5, Q9C0E4 (Q9C0E4 544-642): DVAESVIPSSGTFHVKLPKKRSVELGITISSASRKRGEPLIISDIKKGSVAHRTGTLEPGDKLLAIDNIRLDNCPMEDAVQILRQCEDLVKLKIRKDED

MPDZ_5, O75970 = target: T3, MPDZ_5, O75970
T3 sequence (O75970 695-796, limits assumed, looked up): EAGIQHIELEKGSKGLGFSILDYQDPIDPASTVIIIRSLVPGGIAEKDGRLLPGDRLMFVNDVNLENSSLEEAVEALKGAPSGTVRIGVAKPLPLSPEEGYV

NHERF3_1, Q5T2W1 = target: T4, NHERF3_1, Q5T2W1
T4 sequence (Q5T2W1 4-100, limits assumed, looked up): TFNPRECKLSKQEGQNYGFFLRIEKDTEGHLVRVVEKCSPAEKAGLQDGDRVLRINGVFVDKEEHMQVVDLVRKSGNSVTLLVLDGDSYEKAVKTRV

APBA1_1, Q02410 = target: T5, APBA1_1, Q02410
T5 sequence (Q02410 651-752, limits assumed, looked up): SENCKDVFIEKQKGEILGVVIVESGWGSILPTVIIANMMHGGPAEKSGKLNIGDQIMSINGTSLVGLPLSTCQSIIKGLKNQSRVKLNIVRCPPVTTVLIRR

NHERF4_4, Q86UT5 = target: NHERF4_4, Q86UT5
Sequence of NHERF4_4, Q86UT5 (Q86UT5 464-550): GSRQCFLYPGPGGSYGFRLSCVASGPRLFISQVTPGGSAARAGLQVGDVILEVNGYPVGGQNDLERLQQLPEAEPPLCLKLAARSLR

NHERF2_2, Q15599 = target: NHERF2_2, Q15599
Sequence of NHERF2_2, Q15599 (Q15599 142-238): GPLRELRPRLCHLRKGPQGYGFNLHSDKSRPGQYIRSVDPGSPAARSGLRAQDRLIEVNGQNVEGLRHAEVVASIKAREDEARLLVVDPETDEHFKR

MAGI2_3, Q86UL8 = target: MAGI2_3, Q86UL8
Sequence of MAGI2_3, Q86UL8 (Q86UL8 600-682): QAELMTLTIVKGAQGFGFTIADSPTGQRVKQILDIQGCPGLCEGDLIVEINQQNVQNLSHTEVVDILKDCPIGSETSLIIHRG

IL16_1, Q14005 = target: IL16_1, Q14005
Sequence of IL16_1, Q14005 (Q14005 210-306): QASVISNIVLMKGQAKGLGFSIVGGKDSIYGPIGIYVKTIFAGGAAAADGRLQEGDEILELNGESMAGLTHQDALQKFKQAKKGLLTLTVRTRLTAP

PICK1, Q9NRD5 = target: PICK1, Q9NRD5
Sequence of PICK1, Q9NRD5 (Q9NRD5 17-115): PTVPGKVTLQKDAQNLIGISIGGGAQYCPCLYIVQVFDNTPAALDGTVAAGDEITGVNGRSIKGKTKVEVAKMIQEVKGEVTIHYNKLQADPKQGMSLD

MPDZ_10, O75970 = target: T6, MPDZ_10, O75970
T6 sequence (O75970 1624-1722, limits assumed, looked up): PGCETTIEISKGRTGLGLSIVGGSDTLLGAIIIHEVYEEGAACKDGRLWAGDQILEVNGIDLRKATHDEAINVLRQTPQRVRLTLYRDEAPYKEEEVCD

MPP7, Q5T2T1 = target: T7, MPP7, Q5T2T1
T7 sequence (Q5T2T1 134-230, limits assumed, looked up): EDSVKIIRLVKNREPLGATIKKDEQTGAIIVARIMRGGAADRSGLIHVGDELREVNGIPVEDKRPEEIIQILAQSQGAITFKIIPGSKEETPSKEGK

APBA1_2, Q02410 = target: T8, APBA1_2, Q02410
T8 sequence (Q02410 742-832, limits assumed, looked up): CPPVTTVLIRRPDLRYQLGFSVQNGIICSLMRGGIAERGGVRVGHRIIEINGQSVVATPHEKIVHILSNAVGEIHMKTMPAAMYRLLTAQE

ARHGAP21, Q5T5U3 = target: T9, ARHGAP21, Q5T5U3
T9 sequence (Q5T5U3 45-169, limits assumed, looked up): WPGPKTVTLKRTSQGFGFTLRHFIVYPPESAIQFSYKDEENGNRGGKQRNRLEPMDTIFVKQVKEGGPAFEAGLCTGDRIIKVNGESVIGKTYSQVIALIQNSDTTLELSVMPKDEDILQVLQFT

TX1BP3, O14907 = target: T10, TX1BP3, O14907
T10 sequence (O14907 10-122, limits assumed, looked up): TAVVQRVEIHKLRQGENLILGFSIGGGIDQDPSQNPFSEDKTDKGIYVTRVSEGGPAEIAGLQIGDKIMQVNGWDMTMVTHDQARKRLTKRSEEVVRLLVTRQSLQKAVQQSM

[1] = plain residues with an end cap or a label only (N-terminal biotin on a linker: ado-ado)
[2] = plain residues with an end cap or a label only (N-terminal biotin on a linker: (peg)3)
[3] = plain residues with an end cap or a label only (N-terminal biotin on a linker: ahx)

Sequence of Inadl_4, Q8NI35 (Q8NI35 547-651): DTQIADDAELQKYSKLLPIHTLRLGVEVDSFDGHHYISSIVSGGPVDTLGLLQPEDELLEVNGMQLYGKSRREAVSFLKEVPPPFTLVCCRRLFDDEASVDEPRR
Sequence of PARD3_3, Q8TEW0 (Q8TEW0 582-685): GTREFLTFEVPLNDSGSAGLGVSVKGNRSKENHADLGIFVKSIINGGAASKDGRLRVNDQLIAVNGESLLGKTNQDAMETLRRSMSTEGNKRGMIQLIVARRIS
Sequence of MAGI1_1, Q96QZ7 (Q96QZ7 1-106): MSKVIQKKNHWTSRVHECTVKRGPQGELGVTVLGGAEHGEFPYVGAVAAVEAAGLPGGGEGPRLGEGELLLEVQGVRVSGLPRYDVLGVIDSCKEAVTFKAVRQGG
Sequence of SCRIB_2, Q14160 (Q14160 857-960): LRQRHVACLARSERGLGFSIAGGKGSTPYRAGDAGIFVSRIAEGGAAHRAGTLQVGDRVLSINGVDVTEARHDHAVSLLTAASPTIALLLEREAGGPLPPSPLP
Sequence of NOS1, P29475 (P29475 9-101): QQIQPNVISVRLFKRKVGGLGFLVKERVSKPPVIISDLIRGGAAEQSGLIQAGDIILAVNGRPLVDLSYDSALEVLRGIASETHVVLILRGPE

NTLNRKTTPV [CACNG8, Q8WXS5]
pKd (Inadl_4, Q8NI35; [1]): below the threshold
pKd (PARD3_3, Q8TEW0; [1]): below the threshold
pKd (SCRIB_2, Q14160; [1]): 3.62
pKd (MAGI1_1, Q96QZ7; [1]): below the threshold
pKd (NOS1, P29475; [1]): 4.04
pKd (GRID2IP_2, A4D2P6; [1]): 3.94
pKd (NHERF4_2, Q86UT5; [1]): 3.53
pKd (PDZD2_2, O15018; [1]): 3.81
pKd (MAST2, Q6P0Q8; [1]): 4.83
pKd (GRIP2_3, Q9C0E4; [1]): below the threshold
pKd (LDB3, O75112; [1]): below the threshold
pKd (DLG3_3, Q92796; [1]): 5.08
pKd (DLG4_1, P78352; [1]): 4.4
pKd (GRIP2_5, Q9C0E4; [1]): 3.54
pKd (MPDZ_5, O75970; [1]): below the threshold
pKd (NHERF3_1, Q5T2W1; [1]): 3.48
pKd (APBA1_1, Q02410; [1]): below the threshold
pKd (NHERF4_4, Q86UT5; [1]): 3.99
pKd (NHERF2_2, Q15599; [1]): below the threshold
pKd (MAGI2_3, Q86UL8; [1]): 3.85
pKd (IL16_1, Q14005; [1]): below the threshold
pKd (PICK1, Q9NRD5; [1]): 4.17
pKd (MPDZ_10, O75970; [1]): 3.84
pKd (MPP7, Q5T2T1; [1]): below the threshold
pKd (APBA1_2, Q02410; [1]): 3.91
pKd (ARHGAP21, Q5T5U3; [1]): 3.86
pKd (TX1BP3, O14907; [1]): 5.01

RRRRSQSRESQC [HBV-HBc, P03193]
pKd (Inadl_4, Q8NI35; [2]): below the threshold
pKd (PARD3_3, Q8TEW0; [2]): below the threshold
pKd (SCRIB_2, Q14160; [2]): below the threshold
pKd (MAGI1_1, Q96QZ7; [2]): below the threshold
pKd (NOS1, P29475; [2]): below the threshold
pKd (GRID2IP_2, A4D2P6; [2]): below the threshold
pKd (NHERF4_2, Q86UT5; [2]): below the threshold
pKd (PDZD2_2, O15018; [2]): 3.88
pKd (MAST2, Q6P0Q8; [2]): 4.26
pKd (GRIP2_3, Q9C0E4; [2]): below the threshold
pKd (LDB3, O75112; [2]): below the threshold
pKd (DLG3_3, Q92796; [2]): 3.69
pKd (DLG4_1, P78352; [2]): 4.31
pKd (GRIP2_5, Q9C0E4; [2]): below the threshold
pKd (MPDZ_5, O75970; [2]): below the threshold
pKd (NHERF3_1, Q5T2W1; [2]): 4.44
pKd (APBA1_1, Q02410; [2]): below the threshold
pKd (NHERF4_4, Q86UT5; [2]): below the threshold
pKd (NHERF2_2, Q15599; [2]): below the threshold
pKd (MAGI2_3, Q86UL8; [2]): below the threshold
pKd (IL16_1, Q14005; [2]): below the threshold
pKd (PICK1, Q9NRD5; [2]): 4.05
pKd (MPDZ_10, O75970; [2]): below the threshold
pKd (MPP7, Q5T2T1; [2]): below the threshold
pKd (APBA1_2, Q02410; [2]): below the threshold
pKd (ARHGAP21, Q5T5U3; [2]): below the threshold
pKd (TX1BP3, O14907; [2]): 4.14

AEASVACSLC [PTGIR, P43119]
pKd (Inadl_4, Q8NI35; [1]): below the threshold
pKd (PARD3_3, Q8TEW0; [1]): below the threshold
pKd (SCRIB_2, Q14160; [1]): below the threshold
pKd (MAGI1_1, Q96QZ7; [1]): below the threshold
pKd (NOS1, P29475; [1]): below the threshold
pKd (GRID2IP_2, A4D2P6; [1]): 3.77
pKd (NHERF4_2, Q86UT5; [1]): below the threshold
pKd (PDZD2_2, O15018; [1]): 4.29
pKd (MAST2, Q6P0Q8; [1]): 4.32
pKd (GRIP2_3, Q9C0E4; [1]): below the threshold
pKd (LDB3, O75112; [1]): below the threshold
pKd (DLG3_3, Q92796; [1]): below the threshold
pKd (DLG4_1, P78352; [1]): below the threshold
pKd (GRIP2_5, Q9C0E4; [1]): below the threshold
pKd (MPDZ_5, O75970; [1]): below the threshold
pKd (NHERF3_1, Q5T2W1; [1]): 4.51
pKd (APBA1_1, Q02410; [1]): below the threshold
pKd (NHERF4_4, Q86UT5; [1]): below the threshold
pKd (NHERF2_2, Q15599; [1]): below the threshold
pKd (MAGI2_3, Q86UL8; [1]): below the threshold
pKd (IL16_1, Q14005; [1]): below the threshold
pKd (PICK1, Q9NRD5; [1]): below the threshold
pKd (MPDZ_10, O75970; [1]): 3.47
pKd (MPP7, Q5T2T1; [1]): below the threshold
pKd (APBA1_2, Q02410; [1]): below the threshold
pKd (ARHGAP21, Q5T5U3; [1]): below the threshold
pKd (TX1BP3, O14907; [1]): below the threshold

NTANRRTTPV [CACNG2, Q9Y698]
pKd (Inadl_4, Q8NI35; [1]): below the threshold
pKd (PARD3_3, Q8TEW0; [1]): below the threshold
pKd (SCRIB_2, Q14160; [1]): below the threshold
pKd (MAGI1_1, Q96QZ7; [1]): below the threshold
pKd (NOS1, P29475; [1]): 3.99
pKd (GRID2IP_2, A4D2P6; [1]): 3.89
pKd (NHERF4_2, Q86UT5; [1]): below the threshold
pKd (PDZD2_2, O15018; [1]): 3.66
pKd (MAST2, Q6P0Q8; [1]): 4.52
pKd (GRIP2_3, Q9C0E4; [1]): below the threshold
pKd (LDB3, O75112; [1]): below the threshold
pKd (DLG3_3, Q92796; [1]): 4.69
pKd (DLG4_1, P78352; [1]): 4.5
pKd (GRIP2_5, Q9C0E4; [1]): below the threshold
pKd (MPDZ_5, O75970; [1]): below the threshold
pKd (NHERF3_1, Q5T2W1; [1]): below the threshold
pKd (APBA1_1, Q02410; [1]): below the threshold
pKd (NHERF4_4, Q86UT5; [1]): below the threshold
pKd (NHERF2_2, Q15599; [1]): below the threshold
pKd (MAGI2_3, Q86UL8; [1]): below the threshold
pKd (IL16_1, Q14005; [1]): below the threshold
pKd (PICK1, Q9NRD5; [1]): below the threshold
pKd (MPDZ_10, O75970; [1]): 3.87
pKd (MPP7, Q5T2T1; [1]): below the threshold
pKd (APBA1_2, Q02410; [1]): 3.76
pKd (ARHGAP21, Q5T5U3; [1]): 3.86
pKd (TX1BP3, O14907; [1]): 4.76

TQKFRASTAL [FRMPD1, Q5SYB0]
pKd (Inadl_4, Q8NI35; [3]): below the threshold
pKd (PARD3_3, Q8TEW0; [3]): below the threshold
pKd (SCRIB_2, Q14160; [3]): below the threshold
pKd (MAGI1_1, Q96QZ7; [3]): below the threshold
pKd (NOS1, P29475; [3]): 3.72
pKd (GRID2IP_2, A4D2P6; [3]): 4.18
pKd (NHERF4_2, Q86UT5; [3]): below the threshold
pKd (PDZD2_2, O15018; [3]): below the threshold
pKd (MAST2, Q6P0Q8; [3]): 5.36
pKd (GRIP2_3, Q9C0E4; [3]): below the threshold
pKd (LDB3, O75112; [3]): below the threshold
pKd (DLG3_3, Q92796; [3]): 3.85
pKd (DLG4_1, P78352; [3]): 3.48
pKd (GRIP2_5, Q9C0E4; [3]): below the threshold
pKd (MPDZ_5, O75970; [3]): below the threshold
pKd (NHERF3_1, Q5T2W1; [3]): 5.47
pKd (APBA1_1, Q02410; [3]): below the threshold
pKd (NHERF4_4, Q86UT5; [3]): below the threshold
pKd (NHERF2_2, Q15599; [3]): 4.03
pKd (MAGI2_3, Q86UL8; [3]): below the threshold
pKd (IL16_1, Q14005; [3]): below the threshold
pKd (PICK1, Q9NRD5; [3]): below the threshold
pKd (MPDZ_10, O75970; [3]): below the threshold
pKd (MPP7, Q5T2T1; [3]): below the threshold
pKd (APBA1_2, Q02410; [3]): 3.5
pKd (ARHGAP21, Q5T5U3; [3]): below the threshold
pKd (TX1BP3, O14907; [3]): 4.17
